Assay results taken from patent publication US20200262877A1, “ION CHANNEL-BINDING PEPTIDES AND METHODS OF USE THEREOF” (priority 2017, published 2020).

Key:
5HT3a = target: T1, 5HT3a (Homo sapiens, UniProt P46098); test: Ion channel panel (IonWorks Barracuda): 5HT3a; assay type: cell-based
T1 construct: host or cells: HEK293 or CHO
T1 sequence (P46098 whole entry, looked up): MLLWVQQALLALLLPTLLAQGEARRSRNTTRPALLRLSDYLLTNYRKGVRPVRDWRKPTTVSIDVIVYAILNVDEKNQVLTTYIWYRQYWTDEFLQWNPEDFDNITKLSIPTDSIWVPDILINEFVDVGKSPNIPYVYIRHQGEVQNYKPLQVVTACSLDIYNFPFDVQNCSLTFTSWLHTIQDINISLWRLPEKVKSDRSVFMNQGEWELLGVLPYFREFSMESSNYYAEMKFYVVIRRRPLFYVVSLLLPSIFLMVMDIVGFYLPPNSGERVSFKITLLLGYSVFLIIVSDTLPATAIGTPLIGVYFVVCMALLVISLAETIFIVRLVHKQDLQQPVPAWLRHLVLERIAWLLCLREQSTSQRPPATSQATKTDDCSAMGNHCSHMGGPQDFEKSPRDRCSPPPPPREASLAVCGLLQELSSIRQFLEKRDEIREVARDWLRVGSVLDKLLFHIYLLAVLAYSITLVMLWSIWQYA
In short: (§1)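 Peptides were tested in duplicate at final 20 μM and 200 nM, with concentration set by amino acid analysis, in HEPES-buffered saline. They were applied for at least 5 min to HEK293 or CHO cells transfected with each channel. Currents were expressed as % inhibition, 1-(Ipeptide/Icontrol)×100, or % activation, Ipeptide/Icontrol×100, against a channel-matched reference compound.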

α3β4 = target: T2, α3β4 (Homo sapiens, UniProt P30926+P32297); test: Ion channel panel (IonWorks Barracuda): α3β4; assay type: cell-based; conditions: 100% = no change, <100% = inhibition
T2 construct: host or cells: HEK293 or CHO
In short: as §1

α4β2 = target: T3, α4β2 (Homo sapiens, UniProt P17787+P43681); test: Ion channel panel (IonWorks Barracuda): α4β2; assay type: cell-based; conditions: 100% = no change, <100% = inhibition
T3 construct: host or cells: HEK293 or CHO
In short: as §1

Cav2.1 = target: T4, Cav2.1 (Homo sapiens, UniProt O00555); test: cell-based; conditions: 100% = no change, <100% = inhibition
T4 construct: host or cells: HEK293 or CHO
In short: as §1

Cav2.2 = target: T5, Cav2.2 (Homo sapiens, UniProt Q00975); test: cell-based; conditions: 100% = no change, <100% = inhibition
T5 construct: host or cells: HEK293 or CHO
In short: as §1

Kv2.1 = target: T6, Kv2.1 (Homo sapiens, UniProt Q14721); test: cell-based; conditions: 100% = no change, <100% = inhibition
T6 construct: host or cells: HEK293 or CHO
In short: as §1

GABA = test: Ion channel panel (IonWorks Barracuda): GABA; assay type: cell-based; conditions: 100% = no change, <100% = inhibition
In short: as §1

Nav1.5 = Nav1.5 (Homo sapiens, UniProt Q14524); test: in vitro; conditions: 100% = no change; for Activity of Nav1.5 with peptide, expressed as a percentage of the reference compound: peptide at 0.2 μM; for Activity of Nav1.5 with peptide (percentage of the reference compound): peptide at 20 μM
Sequence of Nav1.5 (Q14524 whole entry): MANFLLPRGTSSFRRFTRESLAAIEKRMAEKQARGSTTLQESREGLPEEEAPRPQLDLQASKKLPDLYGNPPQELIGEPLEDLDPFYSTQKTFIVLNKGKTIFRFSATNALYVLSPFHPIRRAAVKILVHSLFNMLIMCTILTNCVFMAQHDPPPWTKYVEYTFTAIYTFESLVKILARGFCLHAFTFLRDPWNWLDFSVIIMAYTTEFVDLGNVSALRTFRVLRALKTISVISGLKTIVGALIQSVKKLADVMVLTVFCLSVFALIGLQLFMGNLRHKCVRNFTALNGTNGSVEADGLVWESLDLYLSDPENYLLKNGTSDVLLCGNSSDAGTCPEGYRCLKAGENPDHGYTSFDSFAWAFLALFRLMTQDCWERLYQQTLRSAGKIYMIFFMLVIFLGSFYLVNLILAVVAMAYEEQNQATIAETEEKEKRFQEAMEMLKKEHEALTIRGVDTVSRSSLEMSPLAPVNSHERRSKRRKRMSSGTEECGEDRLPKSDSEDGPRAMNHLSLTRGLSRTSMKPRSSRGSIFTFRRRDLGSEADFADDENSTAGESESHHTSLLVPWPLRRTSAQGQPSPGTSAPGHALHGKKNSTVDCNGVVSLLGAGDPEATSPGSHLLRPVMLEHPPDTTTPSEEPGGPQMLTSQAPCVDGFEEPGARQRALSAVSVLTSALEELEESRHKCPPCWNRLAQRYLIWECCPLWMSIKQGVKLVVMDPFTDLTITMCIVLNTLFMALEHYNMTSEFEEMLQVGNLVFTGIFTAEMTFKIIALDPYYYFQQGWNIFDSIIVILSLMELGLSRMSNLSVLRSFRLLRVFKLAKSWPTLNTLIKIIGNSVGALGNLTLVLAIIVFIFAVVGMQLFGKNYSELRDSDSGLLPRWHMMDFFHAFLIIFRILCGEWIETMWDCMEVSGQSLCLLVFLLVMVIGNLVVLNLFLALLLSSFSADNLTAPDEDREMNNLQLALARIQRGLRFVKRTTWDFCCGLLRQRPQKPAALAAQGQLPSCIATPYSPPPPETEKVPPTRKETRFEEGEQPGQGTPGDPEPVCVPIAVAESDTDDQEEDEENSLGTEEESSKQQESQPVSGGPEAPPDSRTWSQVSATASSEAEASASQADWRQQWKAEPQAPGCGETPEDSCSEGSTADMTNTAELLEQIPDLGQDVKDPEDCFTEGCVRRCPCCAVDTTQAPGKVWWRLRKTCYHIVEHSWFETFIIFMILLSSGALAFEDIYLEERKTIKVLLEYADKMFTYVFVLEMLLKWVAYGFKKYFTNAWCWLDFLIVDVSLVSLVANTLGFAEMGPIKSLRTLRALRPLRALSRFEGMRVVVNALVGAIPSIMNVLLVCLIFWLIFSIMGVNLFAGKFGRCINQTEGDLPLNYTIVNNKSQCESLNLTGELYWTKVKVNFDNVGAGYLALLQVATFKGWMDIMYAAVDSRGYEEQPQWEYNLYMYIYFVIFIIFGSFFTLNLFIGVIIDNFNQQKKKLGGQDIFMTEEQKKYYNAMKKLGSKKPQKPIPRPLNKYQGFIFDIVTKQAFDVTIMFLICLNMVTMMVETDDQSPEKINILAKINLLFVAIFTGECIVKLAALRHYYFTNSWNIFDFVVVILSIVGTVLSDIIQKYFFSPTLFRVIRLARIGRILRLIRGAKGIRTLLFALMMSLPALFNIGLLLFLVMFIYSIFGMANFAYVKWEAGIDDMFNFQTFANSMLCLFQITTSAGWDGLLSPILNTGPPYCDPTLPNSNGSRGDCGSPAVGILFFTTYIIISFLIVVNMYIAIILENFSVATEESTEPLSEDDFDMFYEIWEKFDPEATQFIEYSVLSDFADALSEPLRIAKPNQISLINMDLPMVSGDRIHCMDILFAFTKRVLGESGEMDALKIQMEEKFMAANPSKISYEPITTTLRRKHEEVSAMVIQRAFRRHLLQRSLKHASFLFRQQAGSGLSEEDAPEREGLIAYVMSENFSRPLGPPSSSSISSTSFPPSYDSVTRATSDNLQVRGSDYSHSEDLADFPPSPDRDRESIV
In short: as §1

hERG = hERG (Homo sapiens, UniProt Q12809); test: in vitro; conditions: 100% = no change, <100% = inhibition
In short: as §1

Kir2.1 = target: T7, Kir2.1 (Homo sapiens, UniProt P63252); test: Ion channel panel (IonWorks Barracuda): Kir2.1; assay type: cell-based; conditions: 100% = no change, <100% = inhibition
T7 construct: host or cells: HEK293 or CHO
In short: as §1

Kv1.1 = target: T8, Kv1.1 (Homo sapiens, UniProt Q09470); test: cell-based; assay type: cell-based; conditions: 100% = no change, <100% = inhibition
T8 construct: host or cells: HEK293 or CHO
In short: as §1

Kv1.2 = target: T9, Kv1.2 (Homo sapiens, UniProt P16389); test: cell-based; assay type: cell-based; conditions: 100% = no change, <100% = inhibition
T9 construct: host or cells: HEK293 or CHO
In short: as §1

Kv1.3 = target: T10, Kv1.3 (Homo sapiens, UniProt P22001); test: cell-based; assay type: cell-based; conditions: 100% = no change, <100% = inhibition
T10 construct: host or cells: HEK293 or CHO
In short: as §1

Nav1.7 = target: T11, Nav1.7 (Homo sapiens, UniProt Q15858); test: cell-based; assay type: cell-based; conditions: 100% = no change; for Activity of Nav1.7 with peptide, expressed as a percentage of the reference compound: peptide at 0.2 μM; for Activity of Nav1.7 with peptide (percentage of the reference compound): peptide at 20 μM
T11 construct: host or cells: HEK293 or CHO
T11 sequence (Q15858 whole entry): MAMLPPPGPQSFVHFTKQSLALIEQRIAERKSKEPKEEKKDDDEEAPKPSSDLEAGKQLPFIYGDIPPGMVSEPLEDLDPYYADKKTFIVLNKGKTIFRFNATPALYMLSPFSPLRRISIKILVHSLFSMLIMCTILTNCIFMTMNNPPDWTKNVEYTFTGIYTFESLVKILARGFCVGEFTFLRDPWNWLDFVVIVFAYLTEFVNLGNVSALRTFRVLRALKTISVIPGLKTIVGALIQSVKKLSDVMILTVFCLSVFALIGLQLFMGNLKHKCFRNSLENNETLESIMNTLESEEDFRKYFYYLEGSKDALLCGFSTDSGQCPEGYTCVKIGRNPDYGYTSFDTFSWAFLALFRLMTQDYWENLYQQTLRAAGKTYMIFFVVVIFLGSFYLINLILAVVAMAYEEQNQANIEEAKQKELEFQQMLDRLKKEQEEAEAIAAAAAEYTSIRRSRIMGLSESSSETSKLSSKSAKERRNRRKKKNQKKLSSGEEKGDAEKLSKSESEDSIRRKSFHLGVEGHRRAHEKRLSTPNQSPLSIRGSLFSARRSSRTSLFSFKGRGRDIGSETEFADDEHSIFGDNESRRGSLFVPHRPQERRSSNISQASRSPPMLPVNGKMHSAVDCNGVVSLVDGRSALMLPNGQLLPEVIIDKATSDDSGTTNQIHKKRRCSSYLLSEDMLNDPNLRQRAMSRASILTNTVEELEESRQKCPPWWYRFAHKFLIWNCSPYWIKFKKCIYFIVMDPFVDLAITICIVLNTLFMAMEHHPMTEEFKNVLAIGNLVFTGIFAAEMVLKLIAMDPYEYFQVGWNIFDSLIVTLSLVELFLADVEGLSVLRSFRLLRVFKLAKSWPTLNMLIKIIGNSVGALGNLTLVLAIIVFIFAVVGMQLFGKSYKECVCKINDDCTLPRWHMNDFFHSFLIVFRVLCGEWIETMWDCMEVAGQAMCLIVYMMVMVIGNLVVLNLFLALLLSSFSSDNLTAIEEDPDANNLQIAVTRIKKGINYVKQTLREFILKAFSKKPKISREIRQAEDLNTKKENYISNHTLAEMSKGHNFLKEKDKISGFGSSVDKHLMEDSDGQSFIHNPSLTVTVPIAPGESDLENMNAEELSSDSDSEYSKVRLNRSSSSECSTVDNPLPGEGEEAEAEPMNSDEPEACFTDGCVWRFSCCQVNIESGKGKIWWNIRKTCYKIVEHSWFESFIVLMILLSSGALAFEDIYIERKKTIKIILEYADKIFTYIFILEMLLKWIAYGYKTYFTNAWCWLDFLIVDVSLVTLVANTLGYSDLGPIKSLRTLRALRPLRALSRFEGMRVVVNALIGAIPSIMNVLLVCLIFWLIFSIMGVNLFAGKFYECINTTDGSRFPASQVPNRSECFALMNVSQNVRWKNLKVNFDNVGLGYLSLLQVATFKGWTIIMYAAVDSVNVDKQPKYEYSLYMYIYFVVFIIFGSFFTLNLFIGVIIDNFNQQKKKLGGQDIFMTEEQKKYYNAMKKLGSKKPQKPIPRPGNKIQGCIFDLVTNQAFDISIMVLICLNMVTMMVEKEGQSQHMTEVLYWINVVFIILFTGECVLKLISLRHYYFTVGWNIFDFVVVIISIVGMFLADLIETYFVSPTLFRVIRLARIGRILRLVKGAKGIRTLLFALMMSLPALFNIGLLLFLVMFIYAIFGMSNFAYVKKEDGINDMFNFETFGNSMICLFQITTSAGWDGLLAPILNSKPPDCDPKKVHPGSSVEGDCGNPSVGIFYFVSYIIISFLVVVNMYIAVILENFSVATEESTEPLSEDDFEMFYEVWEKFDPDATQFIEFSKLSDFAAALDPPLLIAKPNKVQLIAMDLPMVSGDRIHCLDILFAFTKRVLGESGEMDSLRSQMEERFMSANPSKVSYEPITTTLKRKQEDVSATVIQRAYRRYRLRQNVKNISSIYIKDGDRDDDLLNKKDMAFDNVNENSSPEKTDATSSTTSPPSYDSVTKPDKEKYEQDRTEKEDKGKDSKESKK

NR2A = target: T12, NR2A (Homo sapiens, UniProt Q12879); test: Ion channel panel (IonWorks Barracuda): NR2A; assay type: cell-based; conditions: 100% = no change, <100% = inhibition
T12 construct: host or cells: HEK293 or CHO
In short: as §1

NR2B = target: T13, NR2B (Homo sapiens, UniProt Q13224); test: Ion channel panel (IonWorks Barracuda): NR2B; assay type: cell-based; conditions: 100% = no change, <100% = inhibition
T13 construct: host or cells: HEK293 or CHO
In short: as §1

TRPA1 = target: T14, TRPA1 (Homo sapiens, UniProt O75762); test: Ion channel panel (IonWorks Barracuda): TRPA1; assay type: cell-based; conditions: 100% = no change, <100% = inhibition
T14 construct: host or cells: HEK293 or CHO
T14 sequence (O75762 whole entry): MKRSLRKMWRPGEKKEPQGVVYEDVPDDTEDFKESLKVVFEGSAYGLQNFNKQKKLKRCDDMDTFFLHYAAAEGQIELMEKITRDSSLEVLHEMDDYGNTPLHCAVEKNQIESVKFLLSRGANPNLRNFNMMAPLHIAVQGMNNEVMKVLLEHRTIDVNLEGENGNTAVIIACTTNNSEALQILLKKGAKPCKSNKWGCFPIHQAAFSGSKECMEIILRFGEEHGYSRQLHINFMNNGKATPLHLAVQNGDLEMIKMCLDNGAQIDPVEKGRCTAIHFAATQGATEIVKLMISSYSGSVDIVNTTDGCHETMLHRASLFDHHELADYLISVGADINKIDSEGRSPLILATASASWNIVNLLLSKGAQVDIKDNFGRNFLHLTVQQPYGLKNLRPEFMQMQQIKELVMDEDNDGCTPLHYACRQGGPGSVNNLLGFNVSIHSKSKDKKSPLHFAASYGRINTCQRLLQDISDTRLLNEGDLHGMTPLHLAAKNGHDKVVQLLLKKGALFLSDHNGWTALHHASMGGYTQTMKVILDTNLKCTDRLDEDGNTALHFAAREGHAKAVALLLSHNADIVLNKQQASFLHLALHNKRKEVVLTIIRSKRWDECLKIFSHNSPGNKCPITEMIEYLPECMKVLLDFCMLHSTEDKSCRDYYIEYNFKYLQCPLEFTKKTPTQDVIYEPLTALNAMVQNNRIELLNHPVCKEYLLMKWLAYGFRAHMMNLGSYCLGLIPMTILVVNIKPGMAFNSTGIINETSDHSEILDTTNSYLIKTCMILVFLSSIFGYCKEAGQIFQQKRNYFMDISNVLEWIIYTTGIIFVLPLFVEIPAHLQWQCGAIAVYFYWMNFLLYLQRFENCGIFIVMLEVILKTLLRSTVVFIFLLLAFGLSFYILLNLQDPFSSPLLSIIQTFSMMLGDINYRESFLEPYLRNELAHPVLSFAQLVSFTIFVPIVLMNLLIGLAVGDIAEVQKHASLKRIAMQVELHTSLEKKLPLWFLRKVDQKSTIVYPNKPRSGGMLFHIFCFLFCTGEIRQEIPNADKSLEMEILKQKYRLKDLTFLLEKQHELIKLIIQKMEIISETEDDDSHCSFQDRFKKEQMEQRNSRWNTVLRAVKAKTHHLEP
In short: as §1

TRPV1 = target: T15, TRPV1 (Homo sapiens, UniProt Q8NER1); test: Ion channel panel (IonWorks Barracuda): TRPV1; assay type: cell-based; conditions: 100% = no change, <100% = inhibition
T15 construct: host or cells: HEK293 or CHO
In short: as §1

[1] = first of two Nav1.5 columns (probably TP1)
[2] = second of two Nav1.5 columns (probably TP2)
[3] = first of two Nav1.7 columns (probably TP1)
[4] = second of two Nav1.7 columns (probably TP2)

15 (GSAVCNLKRCQLSCRSLGLLGKCIGDKCECVKHG) [compound 15]
Activity of 5HT3a with peptide (percentage of the reference compound) (5HT3a): 74%
Activity of 5HT3a with peptide, expressed as a percentage of the reference compound (5HT3a): 86%
Activity of a3b4 with peptide, expressed as a percentage of the reference compound (α3β4; peptide at 0.2 μM): 91%
Activity of a3b4 with peptide (percentage of the reference compound) (α3β4; peptide at 20 μM): 86%
Activity of a4b2 with peptide, expressed as a percentage of the reference compound (α4β2; peptide at 0.2 μM): 71%
Activity of a4b2 with peptide (percentage of the reference compound) (α4β2; peptide at 20 μM): 95%
Activity of Cav2.1 with peptide, expressed as a percentage of the reference compound (Cav2.1; peptide at 0.2 μM): 106%
Activity of Cav2.1 with peptide (percentage of the reference compound) (Cav2.1; peptide at 20 μM): 86%
Activity of Cav2.2 with peptide, expressed as a percentage of the reference compound (Cav2.2; peptide at 0.2 μM): 105%
Activity of Cav2.2 with peptide (percentage of the reference compound) (Cav2.2; peptide at 20 μM): 106%
Activity of Kv2.1 with peptide, expressed as a percentage of the reference compound (Kv2.1; peptide at 0.2 μM): 91%
Activity of Kv2.1 with peptide (percentage of the reference compound) (Kv2.1; peptide at 20 μM): 88%
Activity of GABA with peptide, expressed as a percentage of the reference compound (GABA; peptide at 0.2 μM): 122%
Activity of GABA with peptide (percentage of the reference compound) (GABA; peptide at 20 μM): 97%
Activity of Nav1.5 with peptide, expressed as a percentage of the reference compound (Nav1.5; [1]): 90%
Activity of Nav1.5 with peptide, expressed as a percentage of the reference compound (Nav1.5; [2]): 91%
Activity of Nav1.5 with peptide (percentage of the reference compound) (Nav1.5; [1]): 78%
Activity of Nav1.5 with peptide (percentage of the reference compound) (Nav1.5; [2]): 79%
Activity of hERG with peptide, expressed as a percentage of the reference compound (hERG; peptide at 0.2 μM): 79%
Activity of hERG with peptide (percentage of the reference compound) (hERG; peptide at 20 μM): 67%
Activity of Kir2.1 with peptide, expressed as a percentage of the reference compound (Kir2.1; peptide at 0.2 μM): 107%
Activity of Kir2.1 with peptide (percentage of the reference compound) (Kir2.1; peptide at 20 μM): 88%
Activity of Kv1.1 with peptide, expressed as a percentage of the reference compound (Kv1.1; peptide at 0.2 μM): 69%
Activity of Kv1.1 with peptide (percentage of the reference compound) (Kv1.1; peptide at 20 μM): 72%
Activity of Kv1.2 with peptide, expressed as a percentage of the reference compound (Kv1.2; peptide at 0.2 μM): 77%
Activity of Kv1.2 with peptide (percentage of the reference compound) (Kv1.2; peptide at 20 μM): 76%
Activity of Kv1.3 with peptide, expressed as a percentage of the reference compound (Kv1.3; peptide at 0.2 μM): 86%
Activity of Kv1.3 with peptide (percentage of the reference compound) (Kv1.3; peptide at 20 μM): 90%
Activity of Nav1.7 with peptide, expressed as a percentage of the reference compound (Nav1.7; [3]): 91%
Activity of Nav1.7 with peptide, expressed as a percentage of the reference compound (Nav1.7; [4]): 97%
Activity of Nav1.7 with peptide (percentage of the reference compound) (Nav1.7; [3]): 75%
Activity of Nav1.7 with peptide (percentage of the reference compound) (Nav1.7; [4]): 58%
Activity of NR2A with peptide, expressed as a percentage of the reference compound (NR2A; peptide at 0.2 μM): 97%
Activity of NR2A with peptide (percentage of the reference compound) (NR2A; peptide at 20 μM): 76%
Activity of NR2B with peptide, expressed as a percentage of the reference compound (NR2B; peptide at 0.2 μM): 103%
Activity of NR2B with peptide (percentage of the reference compound) (NR2B; peptide at 20 μM): 88%
Activity of TRPA1 with peptide, expressed as a percentage of the reference compound (TRPA1; peptide at 0.2 μM): 114%
Activity of TRPA1 with peptide (percentage of the reference compound) (TRPA1; peptide at 20 μM): 76%
Activity of TRPV1 with peptide, expressed as a percentage of the reference compound (TRPV1; peptide at 0.2 μM): 124%
Activity of TRPV1 with peptide (percentage of the reference compound) (TRPV1; peptide at 20 μM): 99%
